Reference: patent US20130071379A1

B1: 1B20 variant H3 (antibody, part only; not given: light chain, probably the common parent VL, V domains shown, part only)
VH: QVQLVQSGAEVKKPGESLKISCKGSGYSFTNYYITWVRQMPGKGLEWMGMIYPGDSYTHYSQRFQGQVTISADKSISTAYLQWSSLKASDTAIYYCARDHWSRPLFDVWGQGTLVTVSS
B2: 1B20 variant A9 (antibody, part only; not given: light chain, probably the common parent VL, V domains shown, part only)
VH: QVQLVQSGAEVKKPGESLKISCKGSGYSFTNYYISWVRQMPGKGLEWMGMIYPGDSYTRYSPKFQGQVTISADKSISTAYLQWSSLKASDTAMYYCARDHWYRPYSDIWGQGTLVTVSS
B3: 1B20 variant G7 (antibody, part only; not given: light chain, probably the common parent VL, V domains shown, part only)
VH: QVQLVQSGAEVKKPGESLKISCKGSGYSFTDYYISWVRQMPGKGLEWMGWIYPGDSYTHYSPSFQGQVTISADKSISTAYLQWSSLKASDTAMYYCARDHWSKPYFDVWGQGTLVTVSS
B4: 1B20 variant C6 (antibody, part only; not given: light chain, V domains shown, part only)
VH: QVQLVQSGAEVKKPGESLKISCKGSGYSFTNYYITWVRQMPGKGLEWMGMIYPGDSYTHYNPSFQGQVTISADKSISTAYLQWSSLKASDTAMYYCARDHWYKPLFDIWGQGTLVTVSS
B5: 1B20 variant G6 (antibody, part only; not given: light chain, probably the common parent VL, V domains shown, part only)
VH: QVQLVQSGAEVKKPGESLKISCKGSGYSFTDYYINWVRQMPGKGLEWMGMIYPGDSYTNYNPKFQGQVTISADKSISTAYLQWSSLKASDTAIYYCARDHWSRPFSDVWGQGTLVTVSS
B6: 1B20 variant E4 (antibody, part only; not given: light chain, probably the common parent VL, V domains shown, part only)
VH: QVQLVQSGAEVKKPGESLKISCKGSGYSFTNYYISWVRQMPGKGLEWMGWIYPGDSYTSYNQKFQGQVTISADKSISTAYLQWSSLKASDTAMYYCARDYWSKPYSDVWGQGTLVTVSS
B7: 1B20 variant F5 (antibody, part only; not given: light chain, probably the common parent VL, V domains shown, part only)
VH: QVQLVQSGAEVKKPGESLKISCKGSGYSFTDYYITWVRQMPGKGLEWMGMIYPGDSYTNYRHNFQGQVTISADKSISTAYLQWSSLKASDTAMYYCARDYWSRPYFDIWGQGTLVTVSS
B8: 1B20 variant C7 (antibody, part only; not given: light chain, probably the common parent VL, V domains shown, part only)
VH: QVQLVQSGAEVKKPGESLKISCKGSGYSFTDYYISWVRQMPGKGLEWMGWIYPGDSYTHYSHNFQGQVTISADKSISTAYLQWSSLKASDTAMYYCARDHWSRPFSDVWGQGTLVTVSS
B9: 1B20 variant E3 (antibody, part only; not given: light chain, V domains shown, part only)
VH: QVQLVQSGAEVKKPGESLKISCKGSGYSFTDYYISWVRQMPGKGLEWMGMIYPGDSYTSYSPRFQGQVTISADKSISTAYLQWSSLKASDTAMYYCARDYWYRPFSDIWGQGTLVTVSS
B10: 1B20 variant D3 (antibody, part only; not given: light chain, V domains shown, part only)
VH: QVQLVQSGAEVKKPGESLKISCKGSGYSFTDYYITWVRQMPGKGLEWMGMIYPGDSYTRYSPKFQGQVTISADKSISTAYLQWSSLKASDTAMYYCARDYWSKPFFDVWGQGTLVTVSS
B11: 1B20 variant D8 (antibody, part only; not given: light chain, V domains shown, part only)
VH: QVQLVQSGAEVKKPGESLKISCKGSGYSFTDYYISWVRQMPGKGLEWMGMIYPGDSYTHYSQSFQGQVTISADKSISTAYLQWSSLKASDTAMYYCARDHWYRPLFDIWGQGTLVTVSS
B12: 1B20 variant C8 (antibody, part only; not given: light chain, V domains shown, part only)
VH: QVQLVQSGAEVKKPGESLKISCKGSGYSFTNYYIAWVRQMPGKGLEWMGMIYPGDSYTSYSHRFQGQVTISADKSISTAYLQWSSLKASDTAMYYCARDHWYRPYFDIWGQGTLVTVSS
B13: 1B20 variant E5 (antibody, part only; not given: light chain, probably the common parent VL, V domains shown, part only)
VH: QVQLVQSGAEVKKPGESLKISCKGSGYSFTDYYISWVRQMPGKGLEWMGWIYPGDSYTHYNPNFQGQVTISADKSISTAYLQWSSLKASDTAMYYCARDRWSTPYFDVWGQGTLVTVSS
B14: 1B20 variant B8 (antibody, part only; not given: light chain, V domains shown, part only)
VH: QVQLVQSGAEVKKPGESLKISCKGSGYSFTNYYISWVRQMPGKGLEWMGMIYPGDSYTHYSPNFQGQVTISADKSISTAYLQWSSLKASDTAMYYCARDYWSKPYFDVWGQGTLVTVSS
B15: 1B20 variant H7 (antibody, part only; not given: light chain, probably the common parent VL, V domains shown, part only)
VH: QVQLVQSGAEVKKPGESLKISCKGSGYSFTDYYISWVRQMPGKGPEWMGMIYPGDSYTRYSQKFQGQVTISADKSISTAYLQWSSLKASDTAIYYCARDHWSRPLSDIWGQGTLVTVSS
B16: 1B20 variant A5 (antibody, part only; not given: light chain, probably the common parent VL, V domains shown, part only)
VH: QVQLVQSGAEVKKPGESLKISCKGSGYSFTDYYISWVRQMPGKGLEWMGWIYPGDSYTHYNPMFQGQVTISADKSISTAYLQWSSLKASDTAMYYCARDRWSRPYFDIWGQGTLVTVSS
B17: 1B20 variant A3 (antibody, part only; not given: light chain, V domains shown, part only)
VH: QVQLVQSGAEVKKPGESLKISCKGSGYSFTDYYISWVRQMPGKGLEWMGMIYPGDSYTRYSPNFQGQVTISADKSISTAYLQWSSLKASDTAMYYCARDHWYRPLSDIWGQGTLVTVSS

target: PCSK9; assay: Biacore SPR

Binder | Kd [nM]
B1 | 1.89
B2 | 1.95
B3 | 2.05
B4 | 2.1
B5 | 2.2
B6 | 2.38
B7 | 2.41
B8 | 2.53
B9 | 2.62
B10 | 2.68
B11 | 3.21
B12 | 3.73
B13 | 4.22
B14 | 4.47
B15 | 4.9
B16 | 6.81
B17 | 7.93
